Experimental data as given in paper PMC8801479.

Assays:
the GF and c-AMH = assay: ELISA; c-AMH or GF captured on mAb-C1; various concentrations of AMHR2-Fc/Fc in solution; bound AMHR2-Fc/Fc detected with antihuman-Fc Ab conjugated to HRP; quadratic fit
[1] = target: anti-Müllerian hormone growth factor (AMH GF), the mature C-terminal domain (human) (UniProt P03971); assay: ELISA; c-AMH diluted to 1 ng/ml (8.8 pM) in PBS with 1% BSA and 1% goat serum, 10 days at room temperature; ELISA that detects only intact complex; Kd calculated from the fraction of intact complex
[2] = target: anti-Müllerian hormone growth factor (AMH GF), the mature C-terminal domain (human) (UniProt P03971); assay: ELISA; AMHR2-Fc/Fc captured on goat antihuman Fc Ab on the plate; c-AMH 0.03 to 52.83 nM; bound AMH detected with nonbiotinylated mAb-C1 or mAb-N1 and antimouse-Fc-HRP, added one by one or as a preformed complex; data fit globally to the equations of Perelson and DeLisi for ligand-induced receptor dimerization, with the quadratic equation for K_mono and Kbi; [R0] = 0.1 nM
[3] = target: activin A growth factor growth factor domain (Homo sapiens) (UniProt P08476); conditions: cited from earlier work
[4] = target: AMHR2-Fc/Fc, heterodimer of one AMHR2-Fc chain (extracellular domain of human AMHR2 fused to human IgG1 Fc) disulfide bonded to one Fc-only chain (human) (UniProt Q16671); assay: ELISA; AMHR2-Fc/Fc (0.75 ug/ml) captured on goat antihuman Fc Ab coated on the plate; c-AMH or GF serially diluted, 2 to 4 h; bound AMH detected with biotinylated mAb-C1 (GF) or mAb-N1 (prodomain) and SA-HRP; data fit to the quadratic equation for a reversible association reaction
[5] = target: AMHR2-Fc/Fc, heterodimer of one AMHR2-Fc chain (extracellular domain of human AMHR2 fused to human IgG1 Fc) disulfide bonded to one Fc-only chain (human) (UniProt Q16671); assay: ELISA; AMHR2-Fc/Fc captured on goat antihuman Fc Ab on the plate; c-AMH 0.03 to 52.83 nM; bound AMH detected with nonbiotinylated mAb-C1 or mAb-N1 and antimouse-Fc-HRP, added one by one or as a preformed complex; data fit globally to the equations of Perelson and DeLisi for ligand-induced receptor dimerization, with the quadratic equation for K_mono and Kbi; [R0] = 0.1 nM

cleaved anti-Müllerian hormone (c-AMH), the noncovalent complex of the AMH prodomain with the AMH growth factor, sequence (P03971 25-451 limits assumed): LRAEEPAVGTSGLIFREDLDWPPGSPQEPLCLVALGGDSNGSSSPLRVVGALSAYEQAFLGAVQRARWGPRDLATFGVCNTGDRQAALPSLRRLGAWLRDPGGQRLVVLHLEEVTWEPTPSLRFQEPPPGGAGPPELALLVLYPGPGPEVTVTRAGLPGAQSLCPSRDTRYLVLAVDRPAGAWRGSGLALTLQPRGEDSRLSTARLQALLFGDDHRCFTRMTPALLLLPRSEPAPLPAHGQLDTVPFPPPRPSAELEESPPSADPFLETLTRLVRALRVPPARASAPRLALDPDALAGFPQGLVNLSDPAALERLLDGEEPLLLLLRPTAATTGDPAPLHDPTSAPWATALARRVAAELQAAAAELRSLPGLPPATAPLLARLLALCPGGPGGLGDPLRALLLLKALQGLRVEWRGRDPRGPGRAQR
cleaved anti-Müllerian hormone (c-AMH), the noncovalent complex of the AMH prodomain with the AMH growth factor, sequence (P03971 452-560 limits assumed): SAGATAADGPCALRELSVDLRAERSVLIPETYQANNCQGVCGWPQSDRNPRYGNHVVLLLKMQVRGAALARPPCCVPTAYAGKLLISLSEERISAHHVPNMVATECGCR
anti-Müllerian hormone growth factor (AMH GF), the mature C-terminal domain (human), sequence (P03971 452-560): as the sequence (P03971 452-560 limits assumed) above
activin A prodomain prodomain, sequence (P08476 21-310): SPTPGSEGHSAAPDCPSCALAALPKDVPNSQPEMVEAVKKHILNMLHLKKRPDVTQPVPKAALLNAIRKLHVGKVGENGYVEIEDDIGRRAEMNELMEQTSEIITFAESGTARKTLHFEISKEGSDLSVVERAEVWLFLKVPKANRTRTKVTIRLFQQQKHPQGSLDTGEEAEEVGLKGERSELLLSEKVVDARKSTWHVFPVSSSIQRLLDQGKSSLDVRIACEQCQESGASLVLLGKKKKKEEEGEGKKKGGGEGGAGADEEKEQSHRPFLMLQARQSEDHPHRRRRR
activin A growth factor growth factor domain (Homo sapiens), sequence (P08476 311-426): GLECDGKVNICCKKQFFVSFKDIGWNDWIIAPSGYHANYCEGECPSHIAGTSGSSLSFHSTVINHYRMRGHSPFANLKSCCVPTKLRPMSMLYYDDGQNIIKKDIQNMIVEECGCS

## AMHR2-Fc/Fc, heterodimer of one AMHR2-Fc chain (extracellular domain of human AMHR2 fused to human IgG1 Fc) disulfide bonded to one Fc-only chain (from UniProt Q16671 18-149; P01857 104-330) (Fc fusion)
The GF and c-AMH
  Kd: 3 to 4 nM

## anti-Müllerian hormone prodomain (N-terminal prodomain of c-AMH) (domain or fragment)
[1]
  Kd: 0.0004 nM
  intact complex left after 10 days at 8.8 pM, percent of samples diluted immediately before the assay: 80%
[2]
  KT (apparent dissociation constant of the receptor-bound AMH complex, at [R0] = 100 pM), at 0.03 nM c-AMH: 7.5 pM
  KT (apparent dissociation constant of the receptor-bound AMH complex, at [R0] = 100 pM), at 0.05 nM c-AMH: 22.1 pM
  KT (apparent dissociation constant of the receptor-bound AMH complex, at [R0] = 100 pM), at 0.10 nM c-AMH: 24.3 pM
  KT (apparent dissociation constant of the receptor-bound AMH complex, at [R0] = 100 pM), at 0.21 nM c-AMH: 36.6 pM
  KT (apparent dissociation constant of the receptor-bound AMH complex, at [R0] = 100 pM), at 0.41 nM c-AMH: 38.7 pM
  KT (apparent dissociation constant of the receptor-bound AMH complex, at [R0] = 100 pM), at 0.83 nM c-AMH: 45.3 pM
  KT (apparent dissociation constant of the receptor-bound AMH complex, at [R0] = 100 pM), at 1.65 nM c-AMH: 26.2 pM
  KT (apparent dissociation constant of the receptor-bound AMH complex, at [R0] = 100 pM), at 3.30 nM c-AMH: 10 pM
  KT (apparent dissociation constant of the receptor-bound AMH complex, at [R0] = 100 pM), at 6.60 nM c-AMH: 6.1 pM
  KT (apparent dissociation constant of the receptor-bound AMH complex, at [R0] = 100 pM), at 13.21 nM c-AMH: 2.7 pM
  KT (apparent dissociation constant of the receptor-bound AMH complex, at [R0] = 100 pM), at 26.41 nM c-AMH; taken as a measure of K mono: 1 pM
  KT (apparent dissociation constant of the receptor-bound AMH complex, at [R0] = 100 pM), at 52.83 nM c-AMH; taken as a measure of K mono: 0.8 pM
  [NCT]/[RL + RLR], fraction-intact AMH complex, at 0.03 nM c-AMH: 0.29
  [NCT]/[RL + RLR], fraction-intact AMH complex, at 0.05 nM c-AMH: 0.234
  [NCT]/[RL + RLR], fraction-intact AMH complex, at 0.10 nM c-AMH: 0.271
  [NCT]/[RL + RLR], fraction-intact AMH complex, at 0.21 nM c-AMH: 0.276
  [NCT]/[RL + RLR], fraction-intact AMH complex, at 0.41 nM c-AMH: 0.347
  [NCT]/[RL + RLR], fraction-intact AMH complex, at 0.83 nM c-AMH: 0.386
  [NCT]/[RL + RLR], fraction-intact AMH complex, at 1.65 nM c-AMH: 0.521
  [NCT]/[RL + RLR], fraction-intact AMH complex, at 3.30 nM c-AMH: 0.688
  [NCT]/[RL + RLR], fraction-intact AMH complex, at 6.60 nM c-AMH: 0.767
  [NCT]/[RL + RLR], fraction-intact AMH complex, at 13.21 nM c-AMH: 0.845
  [NCT]/[RL + RLR], fraction-intact AMH complex, at 26.41 nM c-AMH: 0.903
  [NCT]/[RL + RLR], fraction-intact AMH complex, at 52.83 nM c-AMH: 0.917

## activin A prodomain prodomain (from UniProt P08476)
[3]
  Kd: 5 nM

## cleaved anti-Müllerian hormone (c-AMH), the noncovalent complex of the AMH prodomain with the AMH growth factor (from UniProt P03971 452-560)
[4]
  Kd: 0.3 nM
[5]
  K1 (dissociation constant of the initial monovalent binding step; fit of Figure 5C): 1.1 nM
  K1 (dissociation constant of the initial monovalent binding step; fit of Figure 5D): 1.1 nM
  [CT]/[R0], bound AMH without prodomain, estimate of [RLR]/[R0], at 0.03 nM c-AMH: 0.031
  [CT]/[R0], bound AMH without prodomain, estimate of [RLR]/[R0], at 0.05 nM c-AMH: 0.067
  [CT]/[R0], bound AMH without prodomain, estimate of [RLR]/[R0], at 0.10 nM c-AMH: 0.091
  [CT]/[R0], bound AMH without prodomain, estimate of [RLR]/[R0], at 0.21 nM c-AMH: 0.147
  [CT]/[R0], bound AMH without prodomain, estimate of [RLR]/[R0], at 0.41 nM c-AMH: 0.206
  [CT]/[R0], bound AMH without prodomain, estimate of [RLR]/[R0], at 0.83 nM c-AMH: 0.284
  [CT]/[R0], bound AMH without prodomain, estimate of [RLR]/[R0], at 1.65 nM c-AMH: 0.285
  [CT]/[R0], bound AMH without prodomain, estimate of [RLR]/[R0], at 3.30 nM c-AMH: 0.22
  [CT]/[R0], bound AMH without prodomain, estimate of [RLR]/[R0], at 6.60 nM c-AMH: 0.199
  [CT]/[R0], bound AMH without prodomain, estimate of [RLR]/[R0], at 13.21 nM c-AMH: 0.145
  [CT]/[R0], bound AMH without prodomain, estimate of [RLR]/[R0], at 26.41 nM c-AMH: 0.094
  [CT]/[R0], bound AMH without prodomain, estimate of [RLR]/[R0], at 52.83 nM c-AMH: 0.086
  [NCT]/[R0], intact AMH complex bound (mAb-N1), estimate of [RL]/[R0], at 0.03 nM c-AMH: 0.013
  [NCT]/[R0], intact AMH complex bound (mAb-N1), estimate of [RL]/[R0], at 0.05 nM c-AMH: 0.021
  [NCT]/[R0], intact AMH complex bound (mAb-N1), estimate of [RL]/[R0], at 0.10 nM c-AMH: 0.034
  [NCT]/[R0], intact AMH complex bound (mAb-N1), estimate of [RL]/[R0], at 0.21 nM c-AMH: 0.056
  [NCT]/[R0], intact AMH complex bound (mAb-N1), estimate of [RL]/[R0], at 0.41 nM c-AMH: 0.109
  [NCT]/[R0], intact AMH complex bound (mAb-N1), estimate of [RL]/[R0], at 0.83 nM c-AMH: 0.178
  [NCT]/[R0], intact AMH complex bound (mAb-N1), estimate of [RL]/[R0], at 1.65 nM c-AMH: 0.311
  [NCT]/[R0], intact AMH complex bound (mAb-N1), estimate of [RL]/[R0], at 3.30 nM c-AMH: 0.487
  [NCT]/[R0], intact AMH complex bound (mAb-N1), estimate of [RL]/[R0], at 6.60 nM c-AMH: 0.654
  [NCT]/[R0], intact AMH complex bound (mAb-N1), estimate of [RL]/[R0], at 13.21 nM c-AMH: 0.794
  [NCT]/[R0], intact AMH complex bound (mAb-N1), estimate of [RL]/[R0], at 26.41 nM c-AMH: 0.871
  [NCT]/[R0], intact AMH complex bound (mAb-N1), estimate of [RL]/[R0], at 52.83 nM c-AMH: 0.941
  [R0]/K2 (second, bivalent binding step; dimensionless): 6
  [R0]/K2 (second, bivalent binding step; dimensionless; fit of Figure 5C): 3.7
  [R0]/K2 (second, bivalent binding step; dimensionless; fit of Figure 5D): 4.9
  [RL+2RLR]/[R0], fraction-receptor occupancy, at 0.03 nM c-AMH: 0.103
  [RL+2RLR]/[R0], fraction-receptor occupancy, at 0.05 nM c-AMH: 0.163
  [RL+2RLR]/[R0], fraction-receptor occupancy, at 0.10 nM c-AMH: 0.254
  [RL+2RLR]/[R0], fraction-receptor occupancy, at 0.21 nM c-AMH: 0.386
  [RL+2RLR]/[R0], fraction-receptor occupancy, at 0.41 nM c-AMH: 0.538
  [RL+2RLR]/[R0], fraction-receptor occupancy, at 0.83 nM c-AMH: 0.654
  [RL+2RLR]/[R0], fraction-receptor occupancy, at 1.65 nM c-AMH: 0.789
  [RL+2RLR]/[R0], fraction-receptor occupancy, at 3.30 nM c-AMH: 0.834
  [RL+2RLR]/[R0], fraction-receptor occupancy, at 6.60 nM c-AMH: 0.917
  [RL+2RLR]/[R0], fraction-receptor occupancy, at 13.21 nM c-AMH: 0.951
  [RL+2RLR]/[R0], fraction-receptor occupancy, at 26.41 nM c-AMH: 0.989
  [RL+2RLR]/[R0], fraction-receptor occupancy, at 52.83 nM c-AMH: 1
  [RL+RLR]/[R0], fraction-maximal AMH binding, at 0.03 nM c-AMH: 0.043
  [RL+RLR]/[R0], fraction-maximal AMH binding, at 0.05 nM c-AMH: 0.088
  [RL+RLR]/[R0], fraction-maximal AMH binding, at 0.10 nM c-AMH: 0.125
  [RL+RLR]/[R0], fraction-maximal AMH binding, at 0.21 nM c-AMH: 0.203
  [RL+RLR]/[R0], fraction-maximal AMH binding, at 0.41 nM c-AMH: 0.315
  [RL+RLR]/[R0], fraction-maximal AMH binding, at 0.83 nM c-AMH: 0.463
  [RL+RLR]/[R0], fraction-maximal AMH binding, at 1.65 nM c-AMH: 0.596
  [RL+RLR]/[R0], fraction-maximal AMH binding, at 3.30 nM c-AMH: 0.707
  [RL+RLR]/[R0], fraction-maximal AMH binding, at 6.60 nM c-AMH: 0.854
  [RL+RLR]/[R0], fraction-maximal AMH binding, at 13.21 nM c-AMH: 0.94
  [RL+RLR]/[R0], fraction-maximal AMH binding, at 26.41 nM c-AMH: 0.965
  [RL+RLR]/[R0], fraction-maximal AMH binding, at 52.83 nM c-AMH: 1.03
